Assay results reported in patent publication US20110263827A1 (AbbVie / Abbott, published 2011).

Assays:
ErbB3 [1] = target: T1, ErbB3 (UniProt P21860 20-643, limits assumed, biotinylated); test: direct bind ELISA, N-term VD;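 also: antibody or DVD-Ig preparations bound to immobilized target antigen on ELISA plates, 1 h at room temperature, TMB detection read as absorbance at 450 nm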
T1 construct: ELISA antigen

EGFR [2] = target: T2, EGFR (UniProt P00533 25-645, limits assumed, biotinylated); test: direct bind ELISA, C-term VD;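 also: ELISA with antibody or DVD-Ig preparations applied to target antigen-coated plates for 1 h at room temperature, TMB colour development, absorbance read at 450 nm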
T2 construct: ELISA antigen; construct not described

EGFR [3] = target: T2, EGFR; test: direct bind ELISA, N-term VD;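 also: antibody or DVD-Ig preparations bound to immobilized target antigen on ELISA plates, 1 h at room temperature, TMB detection read as absorbance at 450 nm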
ErbB3 [4] = target: T1, ErbB3; test: direct bind ELISA, C-term VD;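 also: ELISA with antibody or DVD-Ig preparations applied to target antigen-coated plates for 1 h at room temperature, TMB colour development, absorbance read at 450 nm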

Row | Binder | EC50 (ErbB3 [1]) | EC50 (EGFR [2]) | EC50 (EGFR [3]) | EC50 (ErbB3 [4])
1 | DVD770 (bispecific antibody, DVD-Ig; HC L, LC L; variable parts only) VH: QVQLQQWGAGLLKPSETLSLTCAVYGGSFSGYYWSWIRQPPGKGLEWIGEINHSGSTNYNPSLKSRVTISVETSKNQFSLKLSSVTAADTAVYYCARDKWTWYFDLWGRGTLVTVSSASTKGPSVFPLAPQVQLQESGPGLVKPSQTLSLTCTVSGYSISSDFAWNWIRQPPGKGLEWMGYISYSGNTRYQPSLKSRITISRDTSKNQFFLKLNSVTAADTATYYCVTAGRGFPYWGQGTLVTVSS VL: DIEMTQSPDSLAVSLGERATINCRSSQSVLYSSSNRNYLAWYQQNPGQPPKLLIYWASTRESGVPDRFSGSGSGTDFTLTISSLQAEDVAVYYCQQYYSTPRTFGQGTKVEIKRTVAAPSVFIFPPDIQMTQSPSSMSVSVGDRVTITCHSSQDINSNIGWLQQKPGKSFKGLIYHGTNLDDGVPSRFSGSGSGTDYTLTISSLQPEDFATYYCVQYAQFPWTFGGGTKLEIKR | 0.00155 µM | 0.0152 µM |  | 
2 | DVD772 (bispecific antibody, DVD-Ig; HC L, LC L; variable parts only) VH: EVQLVESGGGLVQPGGSLRLSCAASGFTFSIYSMNWVRQAPGKGLEWVSYISSSSSTIYYADSVKGRFTISRDNAKNSLYLQMNSLRDEDTAVYYCARDRGDFDAFDIWGQGTMVTVSSASTKGPSVFPLAPQVQLQESGPGLVKPSQTLSLTCTVSGYSISSDFAWNWIRQPPGKGLEWMGYISYSGNTRYQPSLKSRITISRDTSKNQFFLKLNSVTAADTATYYCVTAGRGFPYWGQGTLVTVSS VL: DIQMTQSPSSLSASVGDRVTITCQASQDITNYLNWYQQKPGKAPKLLIYDASNLETGVPSRFSGSGSGTDFTFTISSLQPEDIATYNCQQCENFPITFGQGTRLEIKRTVAAPSVFIFPPDIQMTQSPSSMSVSVGDRVTITCHSSQDINSNIGWLQQKPGKSFKGLIYHGTNLDDGVPSRFSGSGSGTDYTLTISSLQPEDFATYYCVQYAQFPWTFGGGTKLEIKR | 0.0314 µM | 0.0772 µM |  | 
3 | DVD788 (bispecific antibody, DVD-Ig; HC L, LC L; variable parts only) VH: EVQLLESGGGLVQPGGSLRLSCAASGFTFSHYVMAWVRQAPGKGLEWVSSISSSGGWTLYADSVKGRFTISRDNSKNTLYLQMNSLRAEDTAVYYCTRGLKMATIFDYWGQGTLVTVSSASTKGPSVFPLAPQVQLQESGPGLVKPSQTLSLTCTVSGYSISSDFAWNWIRQPPGKGLEWMGYISYSGNTRYQPSLKSRITISRDTSKNQFFLKLNSVTAADTATYYCVTAGRGFPYWGQGTLVTVSS VL: QSALTQPASVSGSPGQSITISCTGTSSDVGSYNVVSWYQQHPGKAPKLIIYEVSQRPSGVSNRFSGSKSGNTASLTISGLQTEDEADYYCCSYAGSSIFVIFGGGTKVTVLGQPKAAPSVTLFPPDIQMTQSPSSMSVSVGDRVTITCHSSQDINSNIGWLQQKPGKSFKGLIYHGTNLDDGVPSRFSGSGSGTDYTLTISSLQPEDFATYYCVQYAQFPWTFGGGTKLEIKR | 0.00314 µM | 0.018 µM |  | 
4 | DVD328 (bispecific antibody, DVD-Ig; HC S, LC S; variable parts only) VH: QVQLQQWGAGLLKPSETLSLTCAVYGGSFSGYYWSWIRQPPGKGLEWIGEINHSGSTNYNPSLKSRVTISVETSKNQFSLKLSSVTAADTAVYYCARDKWTWYFDLWGRGTLVTVSSASTKGPQVQLQESGPGLVKPSQTLSLTCTVSGYSISSDFAWNWIRQPPGKGLEWMGYISYSGNTRYQPSLKSRITISRDTSKNQFFLKLNSVTAADTATYYCVTAGRGFPYWGQGTLVTVSS VL: DIEMTQSPDSLAVSLGERATINCRSSQSVLYSSSNRNYLAWYQQNPGQPPKLLIYWASTRESGVPDRFSGSGSGTDFTLTISSLQAEDVAVYYCQQYYSTPRTFGQGTKVEIKRTVAAPDIQMTQSPSSMSVSVGDRVTITCHSSQDINSNIGWLQQKPGKSFKGLIYHGTNLDDGVPSRFSGSGSGTDYTLTISSLQPEDFATYYCVQYAQFPWTFGGGTKLEIKR | 0.00114 µM | 0.0949 µM |  | 
5 | DVD800 (bispecific antibody, DVD-Ig; HC L, LC S; variable parts only) VH: QVQLQQWGAGLLKPSETLSLTCAVYGGSFSGYYWSWIRQPPGKGLEWIGEINHSGSTNYNPSLKSRVTISVETSKNQFSLKLSSVTAADTAVYYCARDKWTWYFDLWGRGTLVTVSSASTKGPSVFPLAPQVQLQESGPGLVKPSQTLSLTCTVSGYSISSDFAWNWIRQPPGKGLEWMGYISYSGNTRYQPSLKSRITISRDTSKNQFFLKLNSVTAADTATYYCVTAGRGFPYWGQGTLVTVSS VL: DIEMTQSPDSLAVSLGERATINCRSSQSVLYSSSNRNYLAWYQQNPGQPPKLLIYWASTRESGVPDRFSGSGSGTDFTLTISSLQAEDVAVYYCQQYYSTPRTFGQGTKVEIKRTVAAPDIQMTQSPSSMSVSVGDRVTITCHSSQDINSNIGWLQQKPGKSFKGLIYHGTNLDDGVPSRFSGSGSGTDYTLTISSLQPEDFATYYCVQYAQFPWTFGGGTKLEIKR | 0.00206 µM | 0.0673 µM |  | 
6 | DVD802 (bispecific antibody, DVD-Ig; HC L, LC S; variable parts only) VH: EVQLVESGGGLVQPGGSLRLSCAASGFTFSIYSMNWVRQAPGKGLEWVSYISSSSSTIYYADSVKGRFTISRDNAKNSLYLQMNSLRDEDTAVYYCARDRGDFDAFDIWGQGTMVTVSSASTKGPSVFPLAPQVQLQESGPGLVKPSQTLSLTCTVSGYSISSDFAWNWIRQPPGKGLEWMGYISYSGNTRYQPSLKSRITISRDTSKNQFFLKLNSVTAADTATYYCVTAGRGFPYWGQGTLVTVSS VL: DIQMTQSPSSLSASVGDRVTITCQASQDITNYLNWYQQKPGKAPKLLIYDASNLETGVPSRFSGSGSGTDFTFTISSLQPEDIATYNCQQCENFPITFGQGTRLEIKRTVAAPDIQMTQSPSSMSVSVGDRVTITCHSSQDINSNIGWLQQKPGKSFKGLIYHGTNLDDGVPSRFSGSGSGTDYTLTISSLQPEDFATYYCVQYAQFPWTFGGGTKLEIKR | 0.0111 µM | 0.726 µM |  | 
7 | DVD818 (bispecific antibody, DVD-Ig; HC L, LC S; variable parts only) VH: EVQLLESGGGLVQPGGSLRLSCAASGFTFSHYVMAWVRQAPGKGLEWVSSISSSGGWTLYADSVKGRFTISRDNSKNTLYLQMNSLRAEDTAVYYCTRGLKMATIFDYWGQGTLVTVSSASTKGPSVFPLAPQVQLQESGPGLVKPSQTLSLTCTVSGYSISSDFAWNWIRQPPGKGLEWMGYISYSGNTRYQPSLKSRITISRDTSKNQFFLKLNSVTAADTATYYCVTAGRGFPYWGQGTLVTVSS VL: QSALTQPASVSGSPGQSITISCTGTSSDVGSYNVVSWYQQHPGKAPKLIIYEVSQRPSGVSNRFSGSKSGNTASLTISGLQTEDEADYYCCSYAGSSIFVIFGGGTKVTVLGQPKAAPDIQMTQSPSSMSVSVGDRVTITCHSSQDINSNIGWLQQKPGKSFKGLIYHGTNLDDGVPSRFSGSGSGTDYTLTISSLQPEDFATYYCVQYAQFPWTFGGGTKLEIKR | 0.00332 µM | 0.0193 µM |  | 
8 | DVD330 (bispecific antibody, DVD-Ig; HC S, LC S; variable parts only) VH: EVQLVESGGGLVQPGGSLRLSCAASGFTFSIYSMNWVRQAPGKGLEWVSYISSSSSTIYYADSVKGRFTISRDNAKNSLYLQMNSLRDEDTAVYYCARDRGDFDAFDIWGQGTMVTVSSASTKGPQVQLQESGPGLVKPSQTLSLTCTVSGYSISSDFAWNWIRQPPGKGLEWMGYISYSGNTRYQPSLKSRITISRDTSKNQFFLKLNSVTAADTATYYCVTAGRGFPYWGQGTLVTVSS VL: DIQMTQSPSSLSASVGDRVTITCQASQDITNYLNWYQQKPGKAPKLLIYDASNLETGVPSRFSGSGSGTDFTFTISSLQPEDIATYNCQQCENFPITFGQGTRLEIKRTVAAPDIQMTQSPSSMSVSVGDRVTITCHSSQDINSNIGWLQQKPGKSFKGLIYHGTNLDDGVPSRFSGSGSGTDYTLTISSLQPEDFATYYCVQYAQFPWTFGGGTKLEIKR | 0.00129 µM | 0.224 µM |  | 
9 | DVD830 (bispecific antibody, DVD-Ig; HC S, LC L; variable parts only) VH: QVQLQQWGAGLLKPSETLSLTCAVYGGSFSGYYWSWIRQPPGKGLEWIGEINHSGSTNYNPSLKSRVTISVETSKNQFSLKLSSVTAADTAVYYCARDKWTWYFDLWGRGTLVTVSSASTKGPQVQLQESGPGLVKPSQTLSLTCTVSGYSISSDFAWNWIRQPPGKGLEWMGYISYSGNTRYQPSLKSRITISRDTSKNQFFLKLNSVTAADTATYYCVTAGRGFPYWGQGTLVTVSS VL: DIEMTQSPDSLAVSLGERATINCRSSQSVLYSSSNRNYLAWYQQNPGQPPKLLIYWASTRESGVPDRFSGSGSGTDFTLTISSLQAEDVAVYYCQQYYSTPRTFGQGTKVEIKRTVAAPSVFIFPPDIQMTQSPSSMSVSVGDRVTITCHSSQDINSNIGWLQQKPGKSFKGLIYHGTNLDDGVPSRFSGSGSGTDYTLTISSLQPEDFATYYCVQYAQFPWTFGGGTKLEIKR | 0.00143 µM | 0.0427 µM |  | 
10 | DVD832 (bispecific antibody, DVD-Ig; HC S, LC L; variable parts only) VH: EVQLVESGGGLVQPGGSLRLSCAASGFTFSIYSMNWVRQAPGKGLEWVSYISSSSSTIYYADSVKGRFTISRDNAKNSLYLQMNSLRDEDTAVYYCARDRGDFDAFDIWGQGTMVTVSSASTKGPQVQLQESGPGLVKPSQTLSLTCTVSGYSISSDFAWNWIRQPPGKGLEWMGYISYSGNTRYQPSLKSRITISRDTSKNQFFLKLNSVTAADTATYYCVTAGRGFPYWGQGTLVTVSS VL: DIQMTQSPSSLSASVGDRVTITCQASQDITNYLNWYQQKPGKAPKLLIYDASNLETGVPSRFSGSGSGTDFTFTISSLQPEDIATYNCQQCENFPITFGQGTRLEIKRTVAAPSVFIFPPDIQMTQSPSSMSVSVGDRVTITCHSSQDINSNIGWLQQKPGKSFKGLIYHGTNLDDGVPSRFSGSGSGTDYTLTISSLQPEDFATYYCVQYAQFPWTFGGGTKLEIKR | 0.00119 µM | 0.0624 µM |  | 
11 | DVD755 (bispecific antibody, DVD-Ig; HC S, LC S; variable parts only) VH: QVQLQESGPGLVKPSQTLSLTCTVSGYSISSDFAWNWIRQPPGKGLEWMGYISYSGNTRYQPSLKSRITISRDTSKNQFFLKLNSVTAADTATYYCVTAGRGFPYWGQGTLVTVSSASTKGPEVQLLESGGGLVQPGGSLRLSCAASGFTFSHYVMAWVRQAPGKGLEWVSSISSSGGWTLYADSVKGRFTISRDNSKNTLYLQMNSLRAEDTAVYYCTRGLKMATIFDYWGQGTLVTVSS VL: DIQMTQSPSSMSVSVGDRVTITCHSSQDINSNIGWLQQKPGKSFKGLIYHGTNLDDGVPSRFSGSGSGTDYTLTISSLQPEDFATYYCVQYAQFPWTFGGGTKLEIKRTVAAPQSALTQPASVSGSPGQSITISCTGTSSDVGSYNVVSWYQQHPGKAPKLIIYEVSQRPSGVSNRFSGSKSGNTASLTISGLQTEDEADYYCCSYAGSSIFVIFGGGTKVTVLG |  |  | 0.00326 µM | 0.0277 µM
